Results taken from patent US20230348630A1 (BEIJING MABWORKS BIOTECH, published 2023).
Like-named read-outs stand apart in the source and are kept apart here.

Key:
[1] = biological target: T1, BCMA-his protein (Cat #: BCA-H522y, ACRO) (human, UniProt Q02223 1-54); assay: ELISA, coated BCMA protein
T1 construct: Bought recombinant protein; the construct is most likely only a soluble part of it; also called BCMA protein; human BCMA
T1 sequence: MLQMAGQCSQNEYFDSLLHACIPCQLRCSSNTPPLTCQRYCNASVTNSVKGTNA
Experimental: (§1) Briefly, an ELISA plate was coated with 100 μl 1 μg/ml BCMA protein (Cat #: BCA-H522y, ACRO) in PBS overnight at 4° C. Then, the plate was blocked with 250 μl PBST with 4% skimmed milk at room temperature for 1 h. […] The negative control well was added with PBST instead of the antibody. The plate was washed with PBST for three times, added with 100 μl HRP conjugated goat anti-human IgG (1:7000, Cat #: 31413, thermofisher), and incubated at room temperature for 1 h. The plate was washed again with PBST for four times, added with 100 μl freshly prepared TMB (Cat #: 555214, BD, USA), and left still for color development, which was terminated with 50 μl 10% H₂SO₄. The absorbance was read at 450 nm, and the data was processed and analyzed using GraphPad.

[2] = biological target: T2, monkey BCMA on HEK293A/monkey BCMA cells (monkey, UniProt Q02223 1-184 (human entry)); assay: flow cytometry on HEK293A/monkey BCMA cells
T2 sequence (Q02223 other isoform, or with tags, fused parts or gaps): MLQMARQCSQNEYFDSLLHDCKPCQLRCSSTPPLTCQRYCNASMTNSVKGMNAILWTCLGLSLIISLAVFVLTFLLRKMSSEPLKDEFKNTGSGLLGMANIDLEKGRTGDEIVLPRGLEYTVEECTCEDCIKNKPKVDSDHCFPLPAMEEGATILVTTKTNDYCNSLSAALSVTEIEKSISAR
Experimental: (§2) The anti-BCMA antibody's binding capability to cell surface BCMAs was tested by FACS. Briefly, HEK293A/human BCMA cells, HEK293A/monkey BCMA cells and HEK293A/mouse BCMA cells, as generated in Example 1, were collected, digested with trypsin, and subjected to centrifugation at 300 g for 5 min. The cells were suspended in PBS, and subjected to centrifugation again. The cells were re-suspended in PBS with 2% FBS at the cell density at 4×10⁶/ml, and 50 μl cells were seeded onto a U-bottom plate. […] The plate was washed with 2% FBS-PBS for three times, added with 50 μl PE-labeled goat-anti-human IgG (H+L) (1: 500), and incubated at room temperature for 45 min. The plate was washed with 2% FBS-PBS again for three times, and added with 150 μl 2% FBS-PBS to suspend the cells. The plate was measured for cell fluorescence using a cytometry, and the data was processed with FlowJo and analyzed with GraphPad.

[3] = biological target: T3, mouse BCMA on HEK293A/mouse BCMA cells (mouse, UniProt O88472 1-185); assay: flow cytometry on HEK293A/mouse BCMA cells
T3 sequence: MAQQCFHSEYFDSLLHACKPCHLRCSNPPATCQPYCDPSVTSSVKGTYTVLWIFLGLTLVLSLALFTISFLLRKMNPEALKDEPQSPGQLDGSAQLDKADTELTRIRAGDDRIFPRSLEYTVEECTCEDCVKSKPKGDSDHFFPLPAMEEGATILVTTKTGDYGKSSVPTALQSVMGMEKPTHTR
Experimental: as §2

[4] = biological target: T4, human BAFFR on HEK293A/human BAFFR cells (human, UniProt Q96RJ3 1-184); assay: flow cytometry on HEK293A/human BAFFR cells
T4 sequence: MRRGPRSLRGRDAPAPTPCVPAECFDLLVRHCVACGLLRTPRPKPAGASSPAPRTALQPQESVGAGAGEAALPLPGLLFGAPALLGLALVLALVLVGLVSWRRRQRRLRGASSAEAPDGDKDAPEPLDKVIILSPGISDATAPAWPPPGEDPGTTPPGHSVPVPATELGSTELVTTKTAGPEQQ

[5] = biological target: T5, human TACI on HEK293A/human TACI cells (human, UniProt O14836 1-293); assay: flow cytometry on HEK293A/human TACI cells
T5 sequence: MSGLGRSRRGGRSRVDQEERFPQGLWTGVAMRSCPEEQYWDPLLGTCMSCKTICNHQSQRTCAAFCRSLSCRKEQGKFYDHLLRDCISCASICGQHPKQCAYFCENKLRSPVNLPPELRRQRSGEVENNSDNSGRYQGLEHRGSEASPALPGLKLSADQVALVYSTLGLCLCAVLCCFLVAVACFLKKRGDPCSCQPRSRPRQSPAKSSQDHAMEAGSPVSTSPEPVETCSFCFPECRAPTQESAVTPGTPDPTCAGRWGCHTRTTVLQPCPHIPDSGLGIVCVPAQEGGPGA

[6] = biological target: T1, BCMA-his protein (Cat #: BCA-H522y, …); assay: SPR (BIAcore 8K), antibody captured by anti-human Fc, BCMA protein as analyte
Experimental: Briefly, the mouse anti-human Fc antibody (Cat #: BR100839, cytiva) was coupled to CMS biosensor chip. […] Chip regeneration was performed with 3 M MgCl₂.

[7] = biological target: T6, human BCMA on HEK293A/human BCMA cells (human, UniProt Q02223 1-184); assay: flow cytometry on HEK293A/human BCMA cells, without soluble BCMA
T6 sequence: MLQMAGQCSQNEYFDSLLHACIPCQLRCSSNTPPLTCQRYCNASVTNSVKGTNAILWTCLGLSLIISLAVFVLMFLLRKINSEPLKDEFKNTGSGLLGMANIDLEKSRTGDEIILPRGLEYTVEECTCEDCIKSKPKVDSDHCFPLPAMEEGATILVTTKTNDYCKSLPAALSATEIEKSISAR
Experimental: Briefly, 10⁵ HEK293A/human BCMA cells in 100 μl culture medium were seeded on a 96-well plate, and the plate […] After 1-h incubation at 4° C., the plate was washed with PBS for three times, added with APC-goat-anti-mouse IgG (1:500 dilution, Cat #: 405308, BioLegend, US), inducted at 4° C. for 1 h, washed with PBS for three times, and measured for cell fluorescence using a FACS analyzer (BD).

[8] = biological target: T6, human BCMA on HEK293A/human BCMA cells; assay: flow cytometry on HEK293A/human BCMA cells
Experimental: as §2

[9] = biological target: T6, human BCMA on HEK293A/human BCMA cells; assay: flow cytometry on HEK293A/human BCMA cells in the presence of 1 µg/ml soluble human BCMA-his protein
Experimental: Briefly, 10⁵ HEK293A/human BCMA cells in 100 μl culture medium were seeded on a 96-well plate, and the plate was further added with 50 μl serially diluted antibody or PBS followed by the human BCMA-his proteins (Cat #: 10620-H08H, Sino Biological) at the final concentration of 1 μg/ml. After 1-h incubation at 4° C., the plate was washed with PBS for three times, added with APC-goat-anti-mouse IgG (1:500 dilution, Cat #: 405308, BioLegend, US), inducted at 4° C. for 1 h, washed with PBS for three times, and measured for cell fluorescence using a FACS analyzer (BD).

[10] = biological target: T7, CD3D&E protein (Cat #: CT038-H2508H, Sino Biological) (human, UniProt P04234 22-105; P07766 23-126); assay: SPR (BIAcore 8K), protocol of Example 10
T7 construct: Bought complex of the delta and epsilon chains; also called CD3D&E complex; human CD3D&E complex
T7 sequence (P04234 22-105, form in doubt, chain 1 of 2): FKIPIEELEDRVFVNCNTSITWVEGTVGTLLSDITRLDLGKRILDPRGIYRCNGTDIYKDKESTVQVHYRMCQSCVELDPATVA
T7 sequence (P07766 23-126, form in doubt, chain 2 of 2): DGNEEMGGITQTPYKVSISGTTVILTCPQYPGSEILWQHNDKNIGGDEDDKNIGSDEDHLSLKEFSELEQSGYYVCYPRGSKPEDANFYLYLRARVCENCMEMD
Experimental: Following the protocols in Example 5 and Example 10, the bispecific antibodies of the disclosure were tested for their binding affinity to CD3D&E and human BCMA.

[11] = biological target: T1, BCMA-his protein (Cat #: BCA-H522y, …); assay: ELISA, coated BCMA protein; remark: listed apart in the source
Experimental: as §1
(§3) The purified bispecific antibodies were tested for their binding capability to recombinant human CD3 and human BCMA proteins by ELISA, following the protocols in Example 4 and Example 9.

[12] = biological target: T7, CD3D&E protein (Cat #: CT038-H2508H, …); assay: ELISA, coated CD3D&E
Experimental: as §3

[13] = biological target: T6, human BCMA on HEK293A/human BCMA cells; assay: flow cytometry on HEK293A/human BCMA cells; remark: listed apart in the source
Experimental: as §2
(§4) Following the protocol of Example 6, the bispecific antibodies of the disclosure were tested for their binding capability to the HEK293A/human BCMA cells, HEK293A/monkey BCMA cells, and HEK293A/mouse BCMA cells as generated in Example 1.

[14] = biological target: T8, CD3 on Jurkat cells (UniProt P04234 22-171; P07766 23-207); assay: flow cytometry on Jurkat cells
T8 construct: whole, on cells
T8 sequence (P04234 22-171, chain 1 of 2): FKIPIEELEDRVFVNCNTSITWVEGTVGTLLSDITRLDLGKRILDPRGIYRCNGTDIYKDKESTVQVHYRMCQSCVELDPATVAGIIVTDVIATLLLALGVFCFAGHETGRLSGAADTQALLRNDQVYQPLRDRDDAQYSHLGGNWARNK
T8 sequence (P07766 23-207, chain 2 of 2): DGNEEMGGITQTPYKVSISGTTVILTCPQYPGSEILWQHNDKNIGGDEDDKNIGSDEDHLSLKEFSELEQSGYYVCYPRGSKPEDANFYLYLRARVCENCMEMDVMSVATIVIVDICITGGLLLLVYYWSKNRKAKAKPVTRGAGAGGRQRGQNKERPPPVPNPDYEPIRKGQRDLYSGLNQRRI
Experimental: Jurkat cells were collected, centrifuged at 300 g for 5 min, and suspended in PBS. After another centrifugation, the cells were suspended in 2% FBS-PBS at the cell density of 3×10⁶/ml, and […] were plated onto a U-bottom plate. The plate was added with 50 μl serially diluted anti-CD3 antibodies of the disclosure in 2% FBS-PBS (4-fold dilution, starting at 20 μg/ml), and incubated at room temperature for 1 h. The plate was washed with 2% FBS-PBS for three times, added with 50 μl PE-labeled goat-anti-human IgG (H+L) (1: 500), and incubated at room temperature for 45 min. The plate was washed with 2% FBS-PBS again for three times, and added with 150 μl 2% FBS-PBS to suspend the cells. The plate was measured for cell fluorescence using a cytometry, and the data was processed with FlowJo and analyzed with GraphPad.
Following the protocol of Example 11, the bispecific antibodies of the disclosure were tested for their binding capability to Jurkat cells.

[15] = biological target: T2, monkey BCMA on HEK293A/monkey BCMA cells; assay: flow cytometry on HEK293A/monkey BCMA cells; remark: listed apart in the source
Experimental: as §2, §4

[16] = biological target: T3, mouse BCMA on HEK293A/mouse BCMA cells; assay: flow cytometry on HEK293A/mouse BCMA cells [continued) F]
Experimental: as §2, §4

Binder | EC50 [1] [µg/mL] | EC50 [2] [µg/mL] | binding result [3] | binding result [4] | binding result [5] | Kd [6] [nM] | EC50 (read off the curve) [7] [µg/mL] | EC50 [8] [µg/mL] | EC50 (read off the curve) [9] [µg/mL] | Kd [10] [nM] | EC50 [11] [µg/mL] | EC50 [12] [µg/mL] | EC50 [13] [µg/mL] | EC50 [14] [µg/mL] | EC50 [15] [µg/mL] | binding result [16]
anti-BCMA antibody A6-3, full-length human IgG1/kappa (antibody, V domains shown, Expressed in HEK293F cells, purified on Protein A) VH: QVQLVQSGAEVKKPGASVKVSCKASGYTFTNHIIHWVRQAPGQGLEWMGYINPYPGYHGYNDKFSGRATMTSDTSTSTVYMELSSLRSEDTAVYYCARDGYYRDQDVLDYWGQGTLVTVSS VL: DIQMTQSPSSLSASVGDRVTITCKASQDISQYLNWYQQKPGKAPKLLIYYTSGLHPGVPSRFSGSGSGTDFTFTISSLEPEDIATYYCQQGYALPWTFGQGTKVEIKR | 0.00733 | 0.0986 | no binding | no binding (tested: 100 µg/ml and 10 µg/ml) | no binding (tested: 100 µg/ml and 10 µg/ml) | 0.132 | ~0.4 | 0.0415 | ~1 | – | – | – | – | – | – | –
anti-CD3/BCMA bispecific antibody MBS305-L-KIH (bispecific antibody, human IgG1, kappa, L234A L235A, N297A) heavy 1: QVQLVQSGAEVKKPGASVKVSCKASGYTFTNHIIHWVRQAPGQGLEWMGYINPYPGYHGYNDKFSGRATMTSDTSTSTVYMELSSLRSEDTAVYYCARDGYYRDQDVLDYWGQGTLVTVSSASTKGPSVFPLAPSSKSTSGGTAALGCLVKDYFPEPVTVSWNSGALTSGVHTFPAVLQSSGLYSLSSVVTVPSSSLGTQTYICNVNHKPSNTKVDKKVEPKSCDKTHTCPPCPAPEAAGGPSVFLFPPKPKDTLMISRTPEVTCVVVDVSHEDPEVKFNWYVDGVEVHNAKTKPREEQYASTYRVVSVLTVLHQDWLNGKEYKCKVSNKALPAPIEKTISKAKGQPREPQVYTLPPSREEMTKNQVSLSCAVKGFYPSDIAVEWESNGQPENNYKTTPPVLDSDGSFFLVSKLTVDKSRWQQGNVFSCSVMHEALHNHYTQKSLSLSPGK light 1: not shown heavy 2: QVQLVQSGAEVKKPGASVKVSCKASGYTFTNHIIHWVRQAPGQGLEWMGYINPYPGYHGYNDKFSGRATMTSDTSTSTVYMELSSLRSEDTAVYYCARDGYYRDQDVLDYWGQGTLVTVSSGGGGSGGGGSGGGGSGGGGSDIQMTQSPSSLSASVGDRVTITCKASQDISQYLNWYQQKPGKAPKLLIYYTSGLHPGVPSRFSGSGSGTDFTFTISSLEPEDEATYYCQQGYALPWTFGQGTKLTAKRGGGGSGGGGSGGGGSEVQLVESGGGLVQPGRSLRLSCAASGFTFGDYAMHWVRQAPGKGLEWVSGISWNHGHIGYADSVKGRFTISRDNAKKSLYLQMNSLRAEDTALYYCAKDNSGYGHYYYGMDVWGQGTTVTVASASTKGPSVFPLAPSSKSTSGGTAALGCLVKDYFPEPVTVSWNSGALTSGVHTFPAVLQSSGLYSLSSVVTVPSSSLGTQTYICNVNHKPSNTKVDKKVEPKSCDKTHTCPPCPAPEAAGGPSVFLFPPKPKDTLMISRTPEVTCVVVDVSHEDPEVKFNWYVDGVEVHNAKTKPREEQYASTYRVVSVLTVLHQDWLNGKEYKCKVSNKALPAPIEKTISKAKGQPREPQVYTLPPSREEMTKNQVSLWCLVKGFYPSDIAVEWESNGQPENNYKTTPPVLDSDGSFFLYSKLTVDKSRWQQGNVFSCSVMHEALHNHYTQKSLSLSPGK light 2: not shown | – | – | – | – | – | – | – | – | – | 675 | 0.0196 | 0.267 | 0.187 | 0.00301 | 0.289 | no binding (tested: about 30000 ng/ml (LOG10 about 4.5))
